Molecular target: LDL receptor (UniProt P01130)
Assay: cell-based or functional assay

Sequence of LDL receptor (P01130 22-860 limits assumed): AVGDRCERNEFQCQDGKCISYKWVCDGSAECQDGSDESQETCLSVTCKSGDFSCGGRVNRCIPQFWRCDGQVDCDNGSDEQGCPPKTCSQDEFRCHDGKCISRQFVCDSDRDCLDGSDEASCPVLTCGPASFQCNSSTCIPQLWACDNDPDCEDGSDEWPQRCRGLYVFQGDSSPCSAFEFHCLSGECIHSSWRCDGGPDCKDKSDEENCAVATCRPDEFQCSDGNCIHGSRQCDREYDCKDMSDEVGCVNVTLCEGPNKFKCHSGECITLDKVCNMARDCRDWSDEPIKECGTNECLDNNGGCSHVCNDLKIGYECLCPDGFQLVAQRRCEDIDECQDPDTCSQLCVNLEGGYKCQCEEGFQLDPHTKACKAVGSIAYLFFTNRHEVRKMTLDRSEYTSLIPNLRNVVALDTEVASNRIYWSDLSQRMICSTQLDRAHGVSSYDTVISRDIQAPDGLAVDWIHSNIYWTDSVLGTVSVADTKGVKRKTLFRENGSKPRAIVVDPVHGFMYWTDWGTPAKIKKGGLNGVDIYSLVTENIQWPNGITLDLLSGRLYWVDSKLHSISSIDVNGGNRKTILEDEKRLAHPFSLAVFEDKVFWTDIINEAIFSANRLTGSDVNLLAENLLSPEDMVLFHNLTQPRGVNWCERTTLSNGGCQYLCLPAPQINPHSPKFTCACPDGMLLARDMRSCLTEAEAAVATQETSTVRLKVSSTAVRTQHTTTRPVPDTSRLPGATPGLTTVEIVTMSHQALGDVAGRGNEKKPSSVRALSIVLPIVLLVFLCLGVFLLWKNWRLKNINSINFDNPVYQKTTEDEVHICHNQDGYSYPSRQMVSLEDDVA

expression (transfection of 293 epithelial cells with peptide:DNA complexes), relative to wild-type apoE peptide complexes (% of wild-type apoE peptide complexes): 5
Substance: distearyl-glycyl-apoE-3^129-169(Q142) (peptide)

Source: patent US6344436
